B1: phage expressing the HMGN2 exon 3 sequence PQRRSARLSA (SEQ ID NO: 11) (other)
chain: PQRRSARLSA
notes: not shown: T7 phage coat protein fusion partner

Legend:
[1] = biological target: T1, nucleolin (110-kDa protein of MDA-MB-435 cells, in cell extracts and inside cells) (human, UniProt P19338 2-710); experiment: affinity chromatography of MDA-MB-435 cell extract on peptide matrix, SDS gel, mass spectrometry
T1 construct: also called 110 kDa band; full-length nucleolin
Experimental: 276:48588-48595 (2001). Briefly, 6×10⁸ MDA-MB-435 cells grown in RPMI 1640 medium with 10% fetal calf serum were pelleted and lysed in 60 ml of RIPA buffer (1% Triton X-100, 0.5% deoxycholic acid, 0.1% SDS, 10 mM Tris-HCl pH 7.6, 150 mM NaCl, and 1% Protease Inhibitor Cocktail for Mammalian Cells; SIGMA). […] Matrix beads were washed three times with IP-wash buffer (0.025% Triton X-100, 50 mM Tris-HCl pH 8.4, 150 mM NaCl, 1 mM CaCl₂, and 0.02% azide), two times with 25 mM Tris-HCl pH 8.4/250 mM NaCl, and eluted with 30 μl of SDS gel sample buffer. Affinity-purified proteins were reduced with 50 mM DTT before being separated on an 8-20% polyacrylamide gel and visualized by Colloidal Blue staining (Invitrogen; Carlsbad, Calif.). Bands that appeared in the peptide SEQ ID NO: 9 eluate, but not in control eluate, were cut out, digested with trypsin and analyzed by mass spectroscopy using matrix-assisted laser desorption ionization-time of flight analysis (Voyager DE-PRO, Applied Biosystems; Foster City, Calif.). Peptide samples were prepared using an alpha-cyano-4-hydroxycinnamic acid (HCCA)/nitrocellulose matrix.

[2] = biological target: T2, cell surface nucleolin on intact tumor cells (MDA-MB-435, HL-60) (human, UniProt P19338 2-710); experiment: phage binding to tumor cells, pfu count; the filing names nucleolin as the receptor only later
T2 construct: Native nucleolin on human tumor cell lines; also called cell surface-expressed nucleolin
From the text: Phage displaying a set of sequences corresponding to fragments of the amino-terminal portion of HMGN2 (SEQ ID NO: 5) were constructed to localize the region responsible for cell binding and in vivo homing. Fragments were designed to follow the exon/intron boundaries of the HMGN2 gene. Inserts encoding the indicated fragments were amplified from the full length HMGN2 phage clone by PCR, purified, digested and directionally cloned into the T7 415-1 and 10-3 vectors. Phage were packaged, amplified and sequenced according to the manufacturer's instructions. Phage preparations were then tested for binding to primary cells obtained from HL-60 xenograft tumors. After a 1 hour incubation at 4° C., cells were washed, and bound phage quantified. […] Furthermore, phage displaying the N-terminal portion of the active fragment SEQ ID NO: 9, which corresponds to exon 3 of the HMGN2 gene, were prepared. These phage expressing the sequence […] (SEQ ID NO: 11) bound to tumor cells 90-fold more than non-recombinant phage.
The phage binding assay was performed essentially as follows. Attachment of phage to cells was quantified by incubating 1×10⁸ pfu of phage displaying SEQ ID NO: 9 for 60 minutes with 1×10⁶ HL-60 cells at 4° C. in Tris-buffered saline with 1 mM Ca⁺² and 1 mM MgCl₂. […] Bound phage were quantified by plating and counting pfu.

T2 sequence (P19338 other isoform, or with tags, fused parts or gaps limits assumed): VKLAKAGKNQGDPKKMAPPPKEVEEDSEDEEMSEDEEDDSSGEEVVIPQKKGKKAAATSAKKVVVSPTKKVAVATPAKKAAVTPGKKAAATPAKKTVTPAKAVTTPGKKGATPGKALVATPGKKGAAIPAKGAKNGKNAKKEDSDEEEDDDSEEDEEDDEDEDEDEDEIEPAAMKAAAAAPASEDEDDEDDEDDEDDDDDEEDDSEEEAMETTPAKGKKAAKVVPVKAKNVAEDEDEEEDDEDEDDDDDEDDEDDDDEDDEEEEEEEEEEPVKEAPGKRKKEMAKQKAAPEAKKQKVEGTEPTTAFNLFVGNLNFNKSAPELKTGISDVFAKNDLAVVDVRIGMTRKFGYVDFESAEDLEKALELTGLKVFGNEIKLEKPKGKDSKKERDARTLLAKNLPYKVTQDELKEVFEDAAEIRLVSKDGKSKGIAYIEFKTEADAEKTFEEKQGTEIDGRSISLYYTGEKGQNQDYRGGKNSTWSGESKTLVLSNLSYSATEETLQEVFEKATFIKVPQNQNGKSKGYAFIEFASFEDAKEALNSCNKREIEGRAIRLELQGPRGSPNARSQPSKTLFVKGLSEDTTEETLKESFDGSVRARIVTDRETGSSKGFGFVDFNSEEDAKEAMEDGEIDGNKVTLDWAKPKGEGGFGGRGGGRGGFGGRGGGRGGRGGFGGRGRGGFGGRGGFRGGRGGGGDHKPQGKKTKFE
T1 sequence (P19338 other isoform, or with tags, fused parts or gaps limits assumed): as above

Binder | binding result [1] | fold binding over non-recombinant phage [2] [fold]
APKDKPAAVKERKKPAPKPRPQELRSKKAKPAPAS (also called control matrix) [control peptide APKDKPAAVKERKKPAPKPRPQELRSKKAKPAPAS (SEQ ID NO:20)] | no binding | 
B1 |  | 90

Source: patent publication US20040186056A1 (SANFORD BURNHAM MEDICAL RESEARCH INSTITUTE, published 2004)
